The values below come from paper PMC12326000.

This assay deals with CanA from Pyrodictium abyssi (recombinant full-length CanA) (Pyrodictium abyssi). Briefly: 1H NMR signal decay during polymerization; 0.97 mM CanA in 50 mM Tris-HCl, 50 mM NaCl, pH 7.5, 10% D2O, 0.4 mM DSS; polymerization started by MgCl2 and CaCl2 to 20 mM each; 298 K; about 42 h; intensity of -0.6 to 0.1 ppm fitted by single or double exponential.

Take “CanA from Pyrodictium abyssi (recombinant full-length CanA) (natural protein)”: the critical CanA concentration for polymerization was found to be 2.48 µM.
